Source: US20090074762A1

Target: T1, TweakR on cells (TweakR-expressing cells, TweakR transfectant cell line, A375 melanoma cells, tumor tissue) (human) (UniProt Q9NP84)
T1 sequence: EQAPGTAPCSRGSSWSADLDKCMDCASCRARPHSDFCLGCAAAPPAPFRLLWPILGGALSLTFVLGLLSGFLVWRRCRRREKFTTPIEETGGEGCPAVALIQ
Test: cell-based or functional assay

B1: anti-TweakR antibody ITEM4 (antibody, from another filing, V domains shown)
VH: QVQLQQSGPELVKPGASVKMSCKASGYTFTDFIIAWVKQRTGQGLEWIGEIYPGTGRTYYSEKFRGKATLTADKSSNTAYMQLSSLTSVDSAVYFCARRTIYYDYDGDYWGQGTTLTVSS
VL: DIVMTQAAFSNPVTLGTSASISCRSSKSLLHSNGITYLYWYLQKPGQSPQLLIYQMSNLASGVPDRFSSSGSGTDFTLRISRVEAEDVGVYYCAHNLELPWTFGGGTKLELK
In the case of B1, the agonist activity (IL-8 release assay) is reported as 12%.
